Experimental data published in US20060140858A1, “Drug pre-targeting by means of bi-specific antibodies and hapten constructs comprising a carrier peptide and the active agent(s)” (Immunomedics, Inc., priority 2002, published 2006).
Where a SMILES comes first, the peptide text is derived from it. The star is where a group is joined. DTPA = O=C(O)CN(CCN(CC(=O)O)CC(=O)O)CCN(CC(=O)O)CC(=O)*

Tests used:
GW-39 tumor xenografts [1] = experiment: Control group: clearance of 111-In-indium-IMP-156 alone; format: in vivo, nude mice; details: 3 h
[2] = as above; format: in vivo, nude mice; details: female, NCRNU nude, mouse, total radioactivity
GW-39 tumor xenografts [3] = experiment: Pretargeting: 125-I-hMN-14 × 734 bsAb, 48 h later 111-In-indium-IMP-156, biodistribution; format: in vivo, nude mice; details: 3 h post peptide
[4] = as above; format: in vivo, nude mice; details: female, nude (Taconic NCRNU), mouse, 3 h post peptide
[5] = Pretargeting: I-125 F6 × 734-F(ab′)2, 72 h later In-111-IMP-225, biodistribution; details: female, mouse, in vivo, 10 uCi, total radioactivity, % ID/g tissue

## CC(=O)N[C@@H](Cc1ccccc1)C(=O)N[C@@H](CCCCNC(=O)CN(CCN(CCN(CC(=O)O)CC(=O)O)CC(=O)O)CC(=O)O)C(=O)N[C@@H](Cc1ccc(O)cc1)C(=O)N[C@@H](CCCCNC(=O)CN(CCN(CCN(CC(=O)O)CC(=O)O)CC(=O)O)CC(=O)O)C(N)=O [IMP 156, Ac-Phe-Lys(DTPA)-Tyr-Lys(DTPA)-NH2] (Ac-FK(DTPA)YK(DTPA)-NH2)
GW-39 tumor xenografts [1]; Blood
  T/NT: 3.1 ± 0.7
GW-39 tumor xenografts [1]; Kidney
  T/NT: 0.2 ± 0.03
GW-39 tumor xenografts [1]; Liver
  T/NT: 0.3 ± 0.1
GW-39 tumor xenografts [1]; Lungs
  T/NT: 3.5 ± 0.7
GW-39 tumor xenografts [1]; Spleen
  T/NT: 0.5 ± 0.1
GW-39 tumor xenografts [1]; Tumor
  T/NT: 1
[2]; Blood
  tissue uptake at 3 h: 0.05 ± 0.01 %ID/g
[2]; Kidney
  tissue uptake at 3 h: 0.93 ± 0.13 %ID/g
[2]; Liver
  tissue uptake at 3 h: 0.42 ± 0.1 %ID/g
[2]; Lungs
  tissue uptake at 3 h: 0.04 ± 0.01 %ID/g
[2]; Spleen
  tissue uptake at 3 h: 0.28 ± 0.09 %ID/g
[2]; Tumor
  tissue uptake at 3 h: 0.14 ± 0.02 %ID/g
GW-39 tumor xenografts [3]; Blood
  T/NT: 7.6 ± 1.5
GW-39 tumor xenografts [3]; Kidney
  T/NT: 2.6 ± 0.5
GW-39 tumor xenografts [3]; Liver
  T/NT: 10.6 ± 3.5
GW-39 tumor xenografts [3]; Lungs
  T/NT: 12 ± 2
GW-39 tumor xenografts [3]; Spleen
  T/NT: 12 ± 6
GW-39 tumor xenografts [3]; tumor
  T/NT: 1
[4]; Blood
  tissue uptake at 3 h: 0.7 ± 0.2 %ID/g
[4]; Kidney
  tissue uptake at 3 h: 1.9 ± 0.5 %ID/g
[4]; Lungs
  tissue uptake at 3 h: 0.4 ± 0.1 %ID/g
[4]; tumor
  tissue uptake at 3 h: 52 ± 1.9 %ID/g

## COc1cccc2c1C(=O)c1c(O)c3c(c(O)c1C2=O)C[C@@](O)(C(=O)CO)C[C@@H]3O[C@H]1C[C@H](NC(=O)CSC[C@H](NC(C)=O)C(=O)N[C@@H](CCCCNC(=O)CN(CCN(CCN(CC(=O)O)CC(=O)O)CC(=O)O)CC(=O)O)C(=O)N[C@@H](Cc2ccc(O)cc2)C(=O)N[C@@H](CCCCNC(=O)CN(CCN(CCN(CC(=O)O)CC(=O)O)CC(=O)O)CC(=O)O)C(N)=O)[C@H](O)[C@H](C)O1 [IMP 225]
[5]; NCRNU nude, Spleen, 1 h
  tissue uptake at 1 h: 1.6 ± 2.4 %ID/g
[5]; nude (Taconic NCRNU), Blood, 1 h
  tissue uptake at 1 h: 2 ± 0.4 %ID/g
[5]; nude (Taconic NCRNU), Blood, 4 h
  tissue uptake at 4 h: 1.3 ± 0.2 %ID/g
[5]; nude (Taconic NCRNU), Blood, 24 h
  tissue uptake at 24 h: 0.4 ± 0.2 %ID/g
[5]; nude (Taconic NCRNU), GW-39, 1 h
  tissue uptake at 1 h: 14.6 ± 14 %ID/g
[5]; nude (Taconic NCRNU), GW-39, 4 h
  tissue uptake at 4 h: 16.5 ± 4.8 %ID/g
[5]; nude (Taconic NCRNU), GW-39, 24 h
  tissue uptake at 24 h: 10.1 ± 2.3 %ID/g
[5]; nude (Taconic NCRNU), Kidney, 1 h
  tissue uptake at 1 h: 3.8 ± 0.9 %ID/g
[5]; nude (Taconic NCRNU), Kidney, 4 h
  tissue uptake at 4 h: 3.8 ± 0.4 %ID/g
[5]; nude (Taconic NCRNU), Kidney, 24 h
  tissue uptake at 24 h: 1.7 ± 0.3 %ID/g
[5]; nude (Taconic NCRNU), Large Int., 1 h
  tissue uptake at 1 h: 0.2 %ID/g
[5]; nude (Taconic NCRNU), Large Int., 4 h
  tissue uptake at 4 h: 0.3 ± 0.1 %ID/g
[5]; nude (Taconic NCRNU), Large Int., 24 h
  tissue uptake at 24 h: 0.1 %ID/g
[5]; nude (Taconic NCRNU), Liver, 1 h
  tissue uptake at 1 h: 0.4 ± 0.2 %ID/g
[5]; nude (Taconic NCRNU), Liver, 4 h
  tissue uptake at 4 h: 0.4 ± 0.1 %ID/g
[5]; nude (Taconic NCRNU), Liver, 24 h
  tissue uptake at 24 h: 0.3 ± 0.1 %ID/g
[5]; nude (Taconic NCRNU), Lungs, 1 h
  tissue uptake at 1 h: 0.8 ± 0.4 %ID/g
[5]; nude (Taconic NCRNU), Lungs, 4 h
  tissue uptake at 4 h: 0.6 ± 0.1 %ID/g
[5]; nude (Taconic NCRNU), Lungs, 24 h
  tissue uptake at 24 h: 0.2 ± 0.1 %ID/g
[5]; nude (Taconic NCRNU), Muscle, 1 h
  tissue uptake at 1 h: 0.3 ± 0.2 %ID/g
[5]; nude (Taconic NCRNU), Muscle, 4 h
  tissue uptake at 4 h: 0.2 %ID/g
[5]; nude (Taconic NCRNU), Muscle, 24 h
  tissue uptake at 24 h: 0.1 %ID/g
[5]; nude (Taconic NCRNU), Small Int., 1 h
  tissue uptake at 1 h: 0.4 ± 0.1 %ID/g
[5]; nude (Taconic NCRNU), Small Int., 4 h
  tissue uptake at 4 h: 0.3 ± 0.2 %ID/g
[5]; nude (Taconic NCRNU), Small Int., 24 h
  tissue uptake at 24 h: 0.1 %ID/g
[5]; nude (Taconic NCRNU), Spleen, 4 h
  tissue uptake at 4 h: 0.4 ± 0.1 %ID/g
[5]; nude (Taconic NCRNU), Spleen, 24 h
  tissue uptake at 24 h: 0.4 ± 0.1 %ID/g
[5]; nude (Taconic NCRNU), Stomach, 1 h
  tissue uptake at 1 h: 1.1 ± 0.9 %ID/g
[5]; nude (Taconic NCRNU), Stomach, 4 h
  tissue uptake at 4 h: 0.4 ± 0.2 %ID/g
[5]; nude (Taconic NCRNU), Stomach, 24 h
  tissue uptake at 24 h: 0.1 %ID/g
[5]; nude (Taconic NCRNU), Tail, 1 h
  tissue uptake at 1 h: 1.2 ± 0.1 %ID/g
[5]; nude (Taconic NCRNU), Tail, 4 h
  tissue uptake at 4 h: 0.8 ± 0.2 %ID/g
[5]; nude (Taconic NCRNU), Tail, 24 h
  tissue uptake at 24 h: 0.5 ± 0.7 %ID/g
